Consider 53 sequences from the supplement of paper PMC10567573.

± gives the standard deviation.

The data set can be described thus: protein stability index of a GFP-peptide fusion (GPS, HEK-293T) (PSI 1-6); higher = more stable.
[1] abbreviates: treatment: DMSO, c terminus: a fixed tail appended.
[2] abbreviates: treatment: MLN4924 1 uM, 8 h, c terminus: a fixed tail appended.
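Further: 24-mer peptide tiles fused after GFP, lentivirally expressed, FACS-sorted into six equal bins by GFP/DsRed ratio, decoded by Illumina sequencing, PSI is the read-weighted mean bin number.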

With TSAVLKAGRQSVSGRKNSTSKDLV [C6orf223], the protein stability index was 4.26 ± 0.074 under setting [1] and 4.38 ± 0.22 under setting [2].
Taken in the same sequence, the figures for TSCIVIILIIISVIVQIKQPRKKY [NETO1] were 3.26 ± 0.17 and 3 ± 0.16.
Regarding TSKDLVTLGASSLREERGHPLHPR [C6orf223], the protein stability index runs as follows: under setting [1], 4.26 ± 0.063; under setting [2], 4.33 ± 0.18.
Taken in the same sequence, the figures for TSPECASPQFEGPLSPPPINYNGI [NEUROD6] were 4.07 ± 0.15 and 3.91 ± 0.3.
Regarding TVDSMIPAYATTRIRSQIGNTESE [GDAP1], the protein stability index stood at 4.86 ± 0.16 under setting [1] and 4.99 ± 0.076 under setting [2].
Taken in the same sequence, the figures for TVVGLFNVRDRDSGRNGEVSLDIS [PCDHGC5] were 2.83 ± 0.37 and 3.13 ± 0.19.
For TVVGVPSGKVSSSSSSLGNKLQTL [ZC2HC1A], in that order: 3.56 ± 0.34 and 3.73 ± 0.29.
For the sequence TWALYNLVSVYPDKYCPLLIKEGG [ZER1], the protein stability index reads like this: under setting [1], 2.62 ± 0.99; under setting [2], 2.26 ± 0.34.
For TWAMRQRGTHAVVGVATADAPLHS [SPSB1], in that order: 2.72 ± 0.34 and 2.87 ± 0.23.
In the case of VAAAASRGADDAMESSKPGPVQVV [ATL3], the protein stability index reads like this: under setting [1], 5.03 ± 0.26; under setting [2], 4.9 ± 0.25.
For VALLNKTNVKFLAITTDCLQILAY [CTNNB1], in that order: 2.86 ± 0.51 and 2.91 ± 0.42.
For VALLRAHAGEHLLLGATKRSMVFK [HNF4A], in that order: 2.27 ± 0.45 and 2.48 ± 0.096.
For the sequence VASKMKETIPLTAEKLCIYTDNSI [CCND1], the protein stability index is 3.15 ± 0.42 under setting [1] and 3.33 ± 0.084 under setting [2].
Turning to VAWHPVRPIIASISSGVVSIWAQN [RBBP5], the protein stability index runs as follows: under setting [1], 2.48 ± 0.48; under setting [2], 2.5 ± 0.39.
Turning to VCGGAQRPGHLPGLLLGSHGLLGS [CDC25B], the protein stability index came out at 1.9 ± 0.96 under setting [1] and 3.24 ± 1.6 under setting [2].
Turning to VCVDRVLYLFGGHHSRGNTNKFYM [KLHDC2], the protein stability index worked out at 2.37 ± 1.4 under setting [1] and 2.86 ± 1.1 under setting [2].
Under setting [2], VCVEHHTFFRLLLPEAPPKKFLTL [EPB41L3] yielded a protein stability index of 2.85 ± 0.42.
For the sequence VEEFGVVSNTRLIAAATSVLKTRF [CCNC], the protein stability index is, setting by setting: under setting [1], 2.88 ± 0.61; under setting [2], 2.26 ± 0.68.
Taken in the same sequence, the figures for VEPKHCFTSPDYQQQCHEMAERLE [SDE2] were 4.85 ± 0.21 and 4.83 ± 0.18.
Taken in the same sequence, the figures for VEQPQPQFISRFLEGQSGVTIKHV [NEK8] were 3.27 ± 0.18 and 3.29 ± 0.17.
For VGAAETTLTELRRTVQSLEIDLDS [KRT18], in that order: 4.51 ± 0.19 and 4.86 ± 0.24.
Consider VGGVLRGLNHSLSYDVALHRTRLQ [SCARA5], for which the protein stability index worked out at 2.59 ± 0.18 under setting [1] and 2.84 ± 0.32 under setting [2].
Taken in the same sequence, the figures for VGMNFLHCMAPPLLHLDLKPANIL [RIPK4] were 2.73 ± 0.57 and 2.14 ± 0.63.
VGPWLGQLQELLHHCDDHLSLYQL [RSAD1] yielded a protein stability index under setting [1] of 2.25 ± 0.45 and a protein stability index under setting [2] of 2.6 ± 0.55.
For VHEHDGHLYLGSFRSPFLCRLSLQ [APMAP], the protein stability index by setting is: under setting [1], 2.73 ± 0.51; under setting [2], 2.33 ± 0.41.
Turning to VHRQLSHLYAEPQKSPWCEARSLE [ESR2], the protein stability index reads like this: under setting [1], 2.92 ± 0.28; under setting [2], 3.2 ± 0.24.
Taken in the same sequence, the figures for VHYLHSKRIAHFDLKPENIMLLDK [DAPK3] were 2.33 ± 0.34 and 2.17 ± 0.28.
For VISKKAKVKVPQKTAGKENHFDMH [ZNF75A], in that order: 3.08 ± 0.24 and 3.06 ± 0.26.
In the case of VIYNYVQRPFIRMSWEKEEGKSRH [BTBD10], the protein stability index under setting [1] is 2.24 ± 0.32 and the protein stability index under setting [2] is 2.46 ± 0.17.
Take VKEKFSPEAFTEQLYRYVTKLLV [ALG2]: the protein stability index by setting is: (treatment: DMSO, c terminus: native) 3.38 ± 0.3; (treatment: MLN4924 1 uM, 8 h, c terminus: native) 3.16 ± 0.16.
Sequence VKGCSMYVALFPCNECAKLIIQAG [DCTD] displayed a protein stability index under setting [1] of 2.97 ± 0.37 and a protein stability index under setting [2] of 2.8 ± 0.49.
Turning to VKKDHVALQVPRGKEDSTLQLLRE [CBY2], the protein stability index runs as follows: under setting [1], 4.26 ± 0.069; under setting [2], 4.37 ± 0.07.
Taken in the same sequence, the figures for VLDVNNQSFREQEEPSNKRVRPLA [NET1] were 3.46 ± 0.2 and 3.99 ± 0.28.
Taken in the same sequence, the figures for VLEVRTENLKQQRSRREQFSRAPV [STX5] were 3.4 ± 0.45 and 3.63 ± 0.41.
For VLFSTHTLDKCGICQGDGSSCTHV [ADAMTSL2], in that order: 3.8 ± 0.22 and 4.09 ± 0.19.
Turning to VLFSVAGGLFVGKEGPMIHSGSVV [CLCN6], the protein stability index came out at 2.58 ± 0.34 under setting [1] and 2.74 ± 0.5 under setting [2].
For VLGSQDALPIATAFTEYVHAYFRG [FCHO1], in that order: 2.51 ± 0.25 and 2.43 ± 0.21.
Taken in the same sequence, the figures for VLIDLWKITKVMDVRLDREHRVAG [CLPTM1] were 2.49 ± 0.68 and 2.57 ± 0.83.
For VLISNHVTPFDHNIVNLLTTCSTP [AUP1], in that order: 2.59 ± 0.66 and 2.48 ± 0.35.
On to VLLLGSVDGRHLLRTLSRAKFWPR [DNAAF3], for which the protein stability index was determined as 2.08 ± 0.36 under setting [1] and 2.27 ± 0.15 under setting [2].
For VLNDRFQRQKYLSLQQMQELSNIL [NANOGP8], in that order: 2.52 ± 0.11 and 2.64 ± 0.32.
Take VLSLVKKHYRLQFYMFAWTHVTLL [CDS1]: the protein stability index reads like this: under setting [1], 3.25 ± 0.56; under setting [2], 2.8 ± 0.56.
For VLVLCVFNSILPGVLILFLTFFAF [SOAT1], in that order: 3.37 ± 0.25 and 3.17 ± 0.22.
Taken in the same sequence, the figures for VMARTRLVVPNKGYSSLDQSPDEK [FAM219A] were 4.62 ± 0.34 and 3.88 ± 0.42.
For VMLTLSDSKHVVLPVDDDSDLNVV [RBBP5], in that order: 3.51 ± 0.14 and 3.49 ± 0.25.
Regarding VMTLPSDLRKHRRKLLSPVSREEN [PPFIA4], the protein stability index under setting [1] amounted to 3.61 ± 0.24 and the protein stability index under setting [2] was 3.9 ± 0.49.
Take VNDLAVGLRRLGLHRTEGELQKIV [SLC25A25]: the protein stability index runs as follows: under setting [1], 3.03 ± 0.074; under setting [2], 3.02 ± 0.28.
On to VPPRRATISSWRNDRMSTRHDGYA [RBMY1A1], for which the protein stability index is, setting by setting: under setting [1], 3.37 ± 0.092; under setting [2], 3.4 ± 0.36.
Consider VQRIMVANIEEVLQRGEALSALDS [SEC22B], for which the protein stability index was 2.85 ± 0.17 under setting [1] and 3.05 ± 0.39 under setting [2].
Turning to VQTGLDQYQQVPVEIVKSDFHKPF [IQUB], the protein stability index reads like this: under setting [1], 3.5 ± 0.22; under setting [2], 3.52 ± 0.33.
For VRRECWFLPTALLCAYGFFASLRP [SLC19A2], in that order: 2.95 ± 0.29 and 2.93 ± 0.28.
Taken in the same sequence, the figures for VSISVVHGNLSEEAAKQMRSRGKV [CPOX] were 3.37 ± 0.47 and 3.47 ± 0.52.
With VSNTYVKQKTSAALSTMGTLICRK [TPD52L3], the protein stability index by setting is: under setting [1], 3.41 ± 0.55; under setting [2], 2.98 ± 0.41.
